According to patent US10822723B2, “Fusion protein crystal comprising a moiety” (Agency for Science, Technology and Research, priority 2015, dated 2020):

Target: T1, PAK4cat (Homo sapiens, UniProt O96013)
T1 construct: PAK1 (1-545) and PAK4 (286-591), respectively; 6His (N); made in house; host or cells: Escherichia coli BL21-CodonPlus(DE3)
Test: In vitro kinase assay, phosphorylation of GST-Raf13 by PAK4cat
Format: biochemical
Details: in vitro, FIG. 1d
Description: Purified PAK1 or PAK4 (50 nM in 25-50 μl) were incubated with 10 μM GST-Raf1S338 peptide in 10 μM ATP (2 μCi of γ32P ATP) of kinase buffer (25 mM Hepes, pH 7.3, 0.1% Triton-X100, 50 mM KCl, 10 mM MgCl2, 1 mM DTT) at 30° C. for 20 min. Samples were analysed by SDS-polyacrylamide gel electrophoresis, or adsorption of the GST substrate mix onto PVDF membranes, followed by extensive washing to remove free γ32P-ATP. The synthetic peptides of 95% purity, as determined by HPLC and MS analyses (GenScript), were soluble in aqueous PBS. Stock solutions (10 mM) were quantified via calculated extinction coefficients and absorbance measurements at 280 nm and stored at −80° C. The diluted peptides were incubated at the indicated concentrations with the kinase on ice (10 min) before addition of γ32P ATP and subsequent incubation at 30° C. The synthetic peptide array (Jerini Biotools) was phosphorylated in situ as described previously.

T1 sequence (O96013 286-591): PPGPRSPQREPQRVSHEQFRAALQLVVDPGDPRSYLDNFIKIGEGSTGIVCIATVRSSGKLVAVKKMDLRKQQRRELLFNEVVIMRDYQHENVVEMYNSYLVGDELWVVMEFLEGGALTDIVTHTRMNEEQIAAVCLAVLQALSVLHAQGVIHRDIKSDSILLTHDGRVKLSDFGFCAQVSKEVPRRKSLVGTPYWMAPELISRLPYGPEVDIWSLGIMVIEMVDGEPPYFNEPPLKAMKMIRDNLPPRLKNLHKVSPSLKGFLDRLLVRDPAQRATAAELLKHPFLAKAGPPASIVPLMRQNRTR

B1: Inka1: human Inka1, endogenous protein inhibitor of PAK4 (protein)
chain: MDMHSARLDSFLSQLRWELLCGRDTGSPSMPGPLQPTSQTGPDVQPSHQLRASGALEEDSVCCVEEEEEEEEEAVVTEDRDAALGGPREHALDWDSGFSEVSGSTWREEELPVSQRPAPSAQPLRRQCLSVSGLPMPSRAPVASVPPVHHPRPKSTPDACLEHWQGLEAEDWTAALLNRGRSRQPLVLGDNCFADLVHNWMELPETGSEGGDGGGHRARARPPQFLLGLSEQLRRRLARARRTAMAGKRLSCPPRPEPELPADVSRFAALMSCRSRQPIICNDVS
modifications: left off: small tags and cut ends
  Ki: ~30 nM
